Data taken from patent publication US6693076.

Assays:
[1] = biological target: 125I-[Threonine59]IGF-I binding sites in adult rat brain sections (level of the cerebellum and brain stem) (rat); assay: displacement of 0.01 nM 125I-[Thr59]IGF-I from rat brain sections; competitor at .25 mM
[2] = biological target: 125I-[Threonine59]IGF-I binding sites in adult rat brain sections (level of the cerebellum and brain stem) (rat); assay: displacement of 0.01 nM 125I-[Thr59]IGF-I from rat brain sections; competitor at .025 mM
[3] = biological target: 125I-[Threonine59]IGF-I binding sites in adult rat brain sections (level of the cerebellum and brain stem) (rat); assay: displacement of 0.01 nM 125I-[Thr59]IGF-I from rat brain sections; competitor at 1 mM
[4] = biological target: 125I-[Threonine59]IGF-I binding sites in adult rat brain sections (level of the cerebellum and brain stem) (rat); assay: displacement of 0.01 nM 125I-[Thr59]IGF-I from rat brain sections; competitor at .10 mM

Row | Binder | percent max. bound [1] [%] | percent max. bound [2] [%] | percent max. bound [3] [%] | percent max. bound [4] [%]
1 | ALLETYCATPAKSE [IGF-II(54-67)] | 167 | 132 | – | –
2 | SRVSRRSR [IGF-II(33-40)] | – | – | 76 | 82
